Laboratory results taken from publication PMC2845643 (2011).

Legend:
Assay in all cases: IAANS fluorescence titration
[1] = biological target: cardiac troponin C (L48Q TnC IAANS T53C) (Homo sapiens, UniProt P63316)
[2] = biological target: cardiac troponin C (TnC IAANS T53C) (Homo sapiens, UniProt P63316)
[3] = biological target: cardiac troponin C (V44Q TnC IAANS T53C) (Homo sapiens, UniProt P63316)
[4] = biological target: cardiac troponin C (F20Q TnC IAANS T53C) (Homo sapiens, UniProt P63316)
[5] = biological target: cardiac troponin C (M45Q TnC IAANS T53C) (Homo sapiens, UniProt P63316)

Kd [1]: 268 nM | Kd [2]: 200 nM | Kd [3]: 262 nM | Kd [4]: 318 nM | Kd [5]: 289 nM
B1: cardiac troponin I peptide TnI128-180 128-180 (protein)
chain: LTQKIFDLRGKFKRPTLRRVRISADAMMQALLGARAKESLDLRAHLKQVKKED
